Measurements published in PMC9582199, “Molecular architecture of the glycogen- committed PP1/PTG holoenzyme” (Nature Communications, 2022).
Read-outs that look alike come from different tables or passages of the source. Values belong to the molecule of their own block, whether it stands above or below them.

What was measured:
GM CBM21 = details: cited from earlier work
Excerpt: The same two sugar-binding sites have been identified in the crystal structures of Rhizopus oryzae CBM21[13],[14]; site II is the primary binding site, while site I has been hypothesized to contribute to the binding of long-chain soluble polysaccharides and insoluble starch or to the relaxation and unwinding of helical amylose[15],[16].

PP1 (Homo sapiens) [1] = target: PP1 (Homo sapiens) (UniProt P62136); details: cited from earlier work
Chain of PP1 (Homo sapiens) (P62136 2-330): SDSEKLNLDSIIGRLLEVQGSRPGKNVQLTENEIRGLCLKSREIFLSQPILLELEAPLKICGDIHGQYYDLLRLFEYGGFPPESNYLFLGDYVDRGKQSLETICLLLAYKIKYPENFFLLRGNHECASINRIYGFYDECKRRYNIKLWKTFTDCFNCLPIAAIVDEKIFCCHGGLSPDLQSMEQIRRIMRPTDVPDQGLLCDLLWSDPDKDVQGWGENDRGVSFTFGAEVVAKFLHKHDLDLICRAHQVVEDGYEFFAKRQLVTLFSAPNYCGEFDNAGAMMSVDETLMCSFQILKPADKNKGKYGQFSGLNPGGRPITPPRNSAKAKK

PP1 (Homo sapiens) [2] = target: PP1 (Homo sapiens) (UniProt P62136); details: cited from earlier work; remark: listed apart in the source
6xHis-tagged PP1 7-330 = target: T1, 6xHis-tagged PP1 7-330 (human, UniProt P62136 7-330); assay: grating-coupled interferometry (GCI); 6xHis-tagged PP1 7-330 captured on 4PCP-NTA WAVE chips (3600 pg/mm2 for PTG 81-107, 1600 pg/mm2 for PTG 81-132); peptides injected, 1:2 dilution series from 300 nM; 10 mM Hepes pH 7.2, 150 mM NaCl, 0.005% Tween 20, 0.2 mg/ml BSA; 25 °C; 100 µl/min; mass transport binding model; details: both partners purified
T1 construct: Serine/threonine-protein phosphatase PP1-alpha catalytic subunit, human, UniProt P62136, residues 7-330; Captured by its His tag on 4PCP-NTA chips; a TEV site lies between tag and protein; source: E. coli BL21 (DE3) pGro7, purified (Ni-NTA, SEC); not shown: His6, N-terminal, kept
T1 sequence (P62136 7-330): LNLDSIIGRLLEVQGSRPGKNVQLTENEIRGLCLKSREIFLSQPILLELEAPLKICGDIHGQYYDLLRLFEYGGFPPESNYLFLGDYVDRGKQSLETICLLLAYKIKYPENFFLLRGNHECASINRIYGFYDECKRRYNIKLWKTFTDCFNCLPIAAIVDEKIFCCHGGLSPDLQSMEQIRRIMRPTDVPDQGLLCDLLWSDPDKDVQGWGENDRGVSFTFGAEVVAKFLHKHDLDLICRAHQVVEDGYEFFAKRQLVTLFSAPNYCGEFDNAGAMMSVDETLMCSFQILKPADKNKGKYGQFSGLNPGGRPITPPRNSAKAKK

6xHis-tagged PP1^7-330 = 6xHis-tagged PP1^7-330 (UniProt P62136 7-330, Mn2+ in active site (expressed and purified with MnCl2); N-terminal 6xHis tag used for capture, left out. Alpha isoform taken from the authors' PDB entries 7QFB/7QM2 and the residue numbering); assay: grating-coupled interferometry (GCI); 6xHis-tagged PP1 7-330 reversibly captured on 4PCP-NTA WAVE chip (3600 or 1600 pg/mm^2); peptides injected, 1:2 dilution series from 300 nM; 25 °C; 10 mM Hepes pH 7.2, 150 mM NaCl, 0.005% Tween 20, 0.2 mg/ml BSA; mass transport binding model; details: both partners purified
Chain of 6xHis-tagged PP1^7-330 (P62136 7-330): as above

PP1 7-330 = target: T2, PP1 7-330 (Homo sapiens, UniProt P62136); assay: GCI binding of immobilized PTG constructs to PP1 as analyte; details: GCI titrations, compared with PTG peptides 81–107 and 81–132
T2 construct: reversibly capturing 6xHis-tagged PP1^7-330; host or cells: E. coli BL21 (DE3) pGro7
T2 sequence (P62136 7-330): as above
Procedure: Grating-coupled interferometry (GCI) experiments were performed using the Creoptix WAVE system, a new generation instrument for the high-sensitivity kinetics and affinity analysis of label-free molecular interactions based on the waveguide interferometry technology. Waveguide interferometry exceeds the sensitivity levels of Surface Plasmon Resonance (SPR). […] GCI allows getting high resolution even at very low signal levels with low noise without artificial data averaging and reliable kinetics below 1 pg/mm^2. By the lower immobilization levels that are required, it avoids mass transport limitations. It covers the broadest kinetic range with the capability of analyzing of the ultra-fast transition times (i.e. 150 ms). It allows the reliable determination of off-rates of 5 s^–1 and even faster, enabling off-rate screening of weakly binding analytes. GCI can be applied to a wide range of pharmacological targets, with improved results on very low molecular weight compounds, to the dimensions of metal ions[56].
WAVE chips are composed of four channels or cells. Borate buffer (100 mM sodium borate pH 9.0, 1 M NaCl) was used for chip conditioning. To evaluate the kinetics of the PTG interaction with β-cyclodextrin and PP1, PTG^70-264 (20 µg/ml in buffer acetate pH 5.0) was immobilized on 4PCH WAVE chips (quasiplanar polycarboxylate surface; Creoptix) by standard amine coupling according to the manufacturer’s instructions at a density of 1800 pg/mm^2 and 1000 pg/mm^2 for β-cyclodextrin and PP1^7-330, respectively (Supplementary Figs. 8, 9). Regeneration-free injections of a 1:3 dilution series from 500 µM for β-cyclodextrin in running buffer (10 mM Hepes pH 7.2, 150 mM NaCl, 0.005% Tween 20) were performed at 25 °C, using a flow rate of 100 μl/min. Similarly, regeneration-free injections of a 1:2 dilution series from 400 nM for PP1^7-330 in the same running buffer were performed at 25 °C, using a flow rate of 30 μl/min. […]
Supplementary Figure 3: Quantitative binding kinetics by GCI. […]

[3] = target: T3, PP1 7-330 (Serine/threonine-protein phosphatase PP1-alpha catalytic subunit, residues 7-330) (human, UniProt P62136 7-330); assay: grating-coupled interferometry (GCI); PTG 70-264 immobilised by amine coupling on a 4PCH WAVE chip at 1000 pg/mm2; PP1 7-330 injected, 1:2 dilution series from 400 nM; 10 mM Hepes pH 7.2, 150 mM NaCl, 0.005% Tween 20; 25 °C; 30 µl/min; mass transport binding model; details: both partners purified
T3 construct: Serine/threonine-protein phosphatase PP1-alpha catalytic subunit, human, UniProt P62136, residues 7-330; source: E. coli BL21 (DE3) pGro7, purified (Ni-NTA, SEC)
T3 sequence (P62136 7-330): as above

Kd (6xHis-tagged PP1 7-330): 0.0077 µM
koff (6xHis-tagged PP1 7-330): 0.0026 s⁻¹
kon (6xHis-tagged PP1 7-330): 357000 M⁻¹ s⁻¹
B1: PTG peptide 81-132 (peptide, UniProt Q9UQK1 81-132, looked up)
peptide: AKKRVVFADSKGLSLTAIHVFSDLPEEPAWDLQFDLLDLNDISSALKHHEEK
notes: also called peptide 2; source: synthetic peptide, bought: ProteoGenix SAS

Kd (6xHis-tagged PP1 7-330): 0.0141 µM
koff (6xHis-tagged PP1 7-330): 0.00295 s⁻¹
kon (6xHis-tagged PP1 7-330): 208000 M⁻¹ s⁻¹
B2: PTG peptide 81-107 (peptide, UniProt Q9UQK1 81-107, looked up)
peptide: AKKRVVFADSKGLSLTAIHVFSDLPEE
notes: also called peptide 1; source: synthetic peptide, bought: ProteoGenix SAS

Kd (6xHis-tagged PP1^7-330): 0.014 µM
B3: PTG peptide 81-107 (peptide, UniProt Q9UQK1 81-107, looked up)
peptide: AKKRVVFADSKGLSLTAIHVFSDLPEE
notes: also called PTG N-terminal peptide; source: synthetic peptide, bought: ProteoGenix SAS

Kd [3]: 0.087 µM
koff [3]: 0.0043 s⁻¹
kon [3]: 50000 M⁻¹ s⁻¹
B5: PTG 70-264 (Protein phosphatase 1 regulatory subunit 3C, residues 70-264) (domain or fragment, human, UniProt Q9UQK1 70-264, looked up)
chain: SQNDWKCSHNQAKKRVVFADSKGLSLTAIHVFSDLPEEPAWDLQFDLLDLNDISSALKHHEEKNLILDFPQPSTDYLSFRSHFQKNFVCLENCSLQERTVTGTVKVKNVSFEKKVQIRITFDSWKNYTDVDCVYMKNVYGGTDSDTFSFAIDLPPVIPTEQKIEFCISYHANGQVFWDNNDGQNYRIVHVQWKPD
notes: GST removed on the column with 3C protease; also called PPP1R3C; protein targeting to glycogen; source: E. coli, co-expressed with GroEL/ES (pGro7), purified (glutathione agarose, SEC); for the crystal co-expressed with PP1 7-300; not shown: GST, N-terminal, cleaved

The remaining lines, values behind:

Molecule: OC[C@H]1O[C@@H]2O[C@H]3[C@H](O)[C@@H](O)[C@@H](O[C@H]4[C@H](O)[C@@H](O)[C@@H](O[C@H]5[C@H](O)[C@@H](O)[C@@H](O[C@H]6[C@H](O)[C@@H](O)[C@@H](O[C@H]7[C@H](O)[C@@H](O)[C@@H](O[C@H]1[C@H](O)[C@H]2O)O[C@@H]7CO)O[C@@H]6CO)O[C@@H]5CO)O[C@@H]4CO)O[C@@H]3CO [α-cyclodextrin]
Kd (GM CBM21): 27.6 µM

Molecule: GM 64-105 (from UniProt Q00756)
Kd (PP1 (Homo sapiens) [1]): 0.114 µM

Molecule: GM 64-237 (from UniProt Q00756)
Kd (PP1 (Homo sapiens) [2]): 0.021 µM

B4: CBM21 aa. 132–264: recombinant PTG carbohydrate-binding module 21, residues 132–264 (protein)
chain: KNLILDFPQPSTDYLSFRSHFQKNFVCLENCSLQERTVTGTVKVKNVSFEKKVQIRITFDSWKNYTDVDCVYMKNVYGGTDSDTFSFAIDLPPVIPTEQKIEFCISYHANGQVFWDNNDGQNYRIVHVQWKPD
modifications: left off: His6, N-terminal, cleaved
binding to PP1 (in words) (PP1 7-330): no interaction was detected
binding to PP1 (in words) (PP1 7-330; listed as isolated CBM21): undetectable binding

B6: PTG70-264: recombinant human PTG residues 70–264, encompassing the PP1-binding region and the CBM21 (protein)
chain: SQNDWKCSHNQAKKRVVFADSKGLSLTAIHVFSDLPEEPAWDLQFDLLDLNDISSALKHHEEKNLILDFPQPSTDYLSFRSHFQKNFVCLENCSLQERTVTGTVKVKNVSFEKKVQIRITFDSWKNYTDVDCVYMKNVYGGTDSDTFSFAIDLPPVIPTEQKIEFCISYHANGQVFWDNNDGQNYRIVHVQWKPD
modifications: left off: GST, N-terminal, cleaved
binding to PP1 (in words) (PP1 7-330): did not bind PP1 any better
